B1: TPR t1 (parent)
chain: GACCAAUCUGCCCUCAGAGCUCGAGAACAUCUUCGGAUGCAGAGGAGGCAGGCUUCGGUGGCGCGAUAGCGCCAACGUCCUCAACCUCCAAUGCAUCCCACCACAUGAUGAUGCCUGAAGAGCCUUGGUUUUUUG

Variants of: B1
Assay: polymerase ribozyme fitness, log enrichment relative to wild type (log ratio); higher = more active; in vitro selection for triplet polymerase activity
Procedure, shortened: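 In triplicate, a single round of in vitro selection was run on each mutant library, PCR-built and transcribed, covering one subunit of a heterodimeric triplet polymerase ribozyme. Frozen incubation at −7 °C followed annealing with a biotinylated primer, partner subunit and triplets, and extended constructs were then gel-excised, streptavidin-captured and taken through RT-PCR. Fitness is the logarithm of genotype enrichment over wild-type enrichment, from inverse-variance-weighted replicate averages of Illumina-sequenced inputs and outputs. […] only genotypes with ≥10 input reads and ≥1 read per output were kept.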

Variant | polymerase ribozyme fitness (log ratio)
GACCAAUCUGCCCUCAGUGCUCGAGAACAUCUUCGGAUGCAGAGGAGGCAGGCUUCGGUGGCGCGAUAUCGCCAACGUCCUCAACCUCCAAUGCAUCCCACCACAUGAUGAUGCCUGAAGAGCCUUGGUUUUUUG | -0.112
GACCAAUCUGCCCUCAGUGCUCGAGAACAUCUUCGGAUUCAGAGGAGGCAGGCUUCGGUGGCGCGAUAGCGCUAACGUCCUCAAGCUCCAAUGCAUCCCACCACAUGAUGAUGCCUGAAGAGCCUUGGUUUUUUG | -4.26
GACCAAUCUGCCCUCAGUGCUCGAGAACAUCUUCGGAUGCAGAGGAGGCAGGCUUCGGUGGCGCGAUAGCGGCAACGUCCUCAACCUCCAAUGCAUCCCACCACAUGAUGAUGCCUGAAGAGCCUUGGUAUUUUG | -4.54
GACCAAUCUGCCCUCAGUGCUCGAGAACAUCUUCGGAUACAGAGGAGGCAGGCAUCGGUGGCGCGAUAGAGCCAACGUCCUCAACCUCCAAUGCAUCCCACCACAUGAUGAUGCCUGAAGAGCUUUAGUUUUUUG | -4.66
GACCAAUCUGCCCUCAGUGCUCGAGAACAUCUUCGGAUGCAGAGGGGGCAGACUUCGGUGGCGCGAUAGCGCCAACGUCCUCAACCUCCAAUGCAUCCCACCACAUGAUGAUGCCUGUAGAGCCUUGGUUUUUUG | -2.9
GACCAAUCUGCCCUCAGUGCUCGAGAACAUCUUCGGAUGGAGAGGAGGCAGGCUUCGGUGGCGCGAUAGCGCCAACGUCCUCUACCUCCAAUGCAUCCCACCACAUGAUGAUGCCUGAAGAGCCUUGGUUUUUUG | -4.16
GACCAAUCUGCCCUCAGUGCUCGAGAACAUCUUCGAAUGCAGAGGAGGCGGGCUUCGGUGGCGCGAUAGCGCCAACGUCCUCAACCUCCAAUGCAUCCCACCACAUGAUGAUGCCUGAAGAGCCUUGGUUUUUUG | -3.46
GACCAAUCUGCCCUCAGUGCUCGAGAACAUCUUCGGAUGCAGAGGAGGCAGGCUUCGGUGGCGCGAUAGCGCCAACGUCCUCAACCUCCAAUGCAUCCCACCACAUGAUGAUGCCUGAAAAGCCUUGGUUUUUUG | -1.14
GACCAAUCUGCCCUCAGUGCUCGAGAACAUCUUCGGAUGCAGAGGAGGGAGGCUUCGGUGGCGCGAUAGCGCCAACGUCCUCAACCUCCAGUGCAUCCCACCACAUGAUGAUGCCUGAAGAGCCUUGGUUUUUUG | -3.84
GACCAAUCUGCCCUCAGUGCUCGAGAACAUCUUCGGAUGCAGAGGAGGCAGGCUUCGGUGGCGCGAUAGCGCCAACGUCCUCAACCUCAAAUGCAUCCCACCACAUGAUGAUGCCUGAAGAGCCUUGGUUUUAUG | -2.21
GACCAAUCUGCCCUCAGUGCUCGAGAACAUCUUCGGAUGCAGAGGAGGCAGGCUUCGGUGGCGCGCUAGCGCCAACGUCCUCAACCUCCAAUGCAUCCCACCACAUGAUGAUGCCUGAAGAGCCUUGGUUUUUUG | -4.55
GACCAAUCUGCCCUCAGUGCUCGAGAACAUCUUCGGAUGCAGAGGUGGCAGGCUUCGGUGGCGCGAUAGCGCCAACGUCCUCAACCUCCAAUGCAUUCCACCUCAUGAUGAUGCCUGAAUAGGCUUGGUUUUUUG | -6.88
GACCAAUCUGCCCUCAGUGCUCGAGAACAUCUUCGGAUGCAGAGGAGGCAGGCUUCGGUUGCGCGAUAGCGCCAACGUCCUCAACCUCCAAUGCAUCCCACCACAUGAUGAUGCCUGAAGAGCCUUGGUUUUUUG | -1.19
GACCAAUCUGCCCUCAGUGCUCGAGAACAUCUUCGGAUGCAGAGGAGGCAGGCUUCUGUGGCGCGAUAGCGCCAACGUCCUCAACCUCCAAUGCAUCCCCCCACAUGAUGAUGCCUGAACAGCCUUGGUUUUUUG | -5.42
GACCAAUCUGCCCUCAGUGCUCGAGAACAUCUUCGGAUGCAGAGGAGGCAGGCUUCGGUGGCGCGAUAGCGCCUACGUCCUCAACCUCCAAUGCAUCCCACCACAUGAUGAUGCCUGAAGAGCCUUGGUUUUUUG | -3.3
GACCAAUCUGCCCUCAGUGCUCGAGAACAUCUUCGGAUGCAGAGGAGCAAGGCUUCGGUGGCGCGAUAGCGCCAACGUCCUCAACCUCCAAUGCAUCCCACCACAUGAUGAUGCCUGAAGAGCCUUGGUUUUUUG | -3.25
GACCAAUCUGCCCUCAGUGCUCGAGAACAUUUUCGGAUGCAGAGGAGGCAGGCUUCGGUGGCGCGAUAGCGCCAACGUCCUCAACCUCCAAUGCAUCCCACCACAUGAUGAUGCCUGAAGAGCCUUGGUUUUUUG | -5.66
GACCAAUCUGCCCUCAGUGCUCGAGAACAUCUUCGGAUGCAGAGGAGGCAGGCUUCGGUGGCGCGAUAGCGCGAACGUCCUCAACCUCCAAUGCAUCCCUCCACAUGAUGAUACCUGAAGAGCCUUGAUUUUUUG | -5.47
GACCAAUCUGCCCUCAGUGCUCGAGAACAUCUUCGGAUGCAGAGGAGGCAGGCUUCGGUGGCGCGAUAGCGCCAUGGUCCUCAACCUCCAAUGCAUCCCACCACAUGAUGAUGCCUGAAGAGCCUUGGGUUUUUG | -5.7
GACCAAUCUGCCCUCAGUGCUCGAGAACAUCUUCGGAUGCAGAGGAGGCAGGCUUCGGUGCCGCGAUAGCGCCAACGUCCUCAACCUCCAAUGCAUCCCACCACAUGAUGAUGCCUGAAAAGCCUUGGUUUUUUG | -4.67
GACCAAUCUGCCCUCAGUGCUCGAGAACAUCUUCGGAUGCAGAGGAGGCAGGCUUCGGUGGCGCGAUAGCGCCAACGUCCUCAACCUCCAAUGCAUCCCACCACAUGAUGGUGCCUGAAGAGCCUUGGAUUUUUG | -4.75
